Measured values published in article PMC12416549 (2024).

T1: TNFR1 (Homo sapiens, UniProt P19438)
T1 chain: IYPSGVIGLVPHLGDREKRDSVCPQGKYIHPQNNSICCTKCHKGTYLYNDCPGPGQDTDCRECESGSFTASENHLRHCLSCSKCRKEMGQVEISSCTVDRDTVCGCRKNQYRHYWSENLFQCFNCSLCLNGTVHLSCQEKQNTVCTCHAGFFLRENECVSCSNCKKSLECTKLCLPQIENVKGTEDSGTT

B1: E61Y (designed binder)
chain: SMEEEVEKAAKEYEKKKKEAIEKHLEKLKAKDKEAAERFLKELEEAAKEYAKDEAKTMSEYEAKRRAKKYKEKVLLSELSEEEQKEIKEAEEKLVRTILKYVEEAAK
B2: A46K (designed binder)
chain: SMEEEVEKAAKEYEKKKKEAIEKHLEKLKAKDKEAAERFLKELEEKAKEYAKDEAKTMSEEEAKRRAKKYKEKVLLSELSEEEQKEIKEAEEKLVRTILKYVEEAAK
B3: E4W (designed binder)
chain: SMEWEVEKAAKEYEKKKKEAIEKHLEKLKAKDKEAAERFLKELEEAAKEYAKDEAKTMSEEEAKRRAKKYKEKVLLSELSEEEQKEIKEAEEKLVRTILKYVEEAAK
B4: L40Q (designed binder)
chain: SMEEEVEKAAKEYEKKKKEAIEKHLEKLKAKDKEAAERFQKELEEAAKEYAKDEAKTMSEEEAKRRAKKYKEKVLLSELSEEEQKEIKEAEEKLVRTILKYVEEAAK
B5: T57A (designed binder)
chain: SMEEEVEKAAKEYEKKKKEAIEKHLEKLKAKDKEAAERFLKELEEAAKEYAKDEAKAMSEEEAKRRAKKYKEKVLLSELSEEEQKEIKEAEEKLVRTILKYVEEAAK
B6: E19L (designed binder)
chain: SMEEEVEKAAKEYEKKKKLAIEKHLEKLKAKDKEAAERFLKELEEAAKEYAKDEAKTMSEEEAKRRAKKYKEKVLLSELSEEEQKEIKEAEEKLVRTILKYVEEAAK
B7: E7F (designed binder)
chain: SMEEEVFKAAKEYEKKKKEAIEKHLEKLKAKDKEAAERFLKELEEAAKEYAKDEAKTMSEEEAKRRAKKYKEKVLLSELSEEEQKEIKEAEEKLVRTILKYVEEAAK
B8: V6L (designed binder)
chain: SMEEELEKAAKEYEKKKKEAIEKHLEKLKAKDKEAAERFLKELEEAAKEYAKDEAKTMSEEEAKRRAKKYKEKVLLSELSEEEQKEIKEAEEKLVRTILKYVEEAAK
B9: E78T (designed binder)
chain: SMEEEVEKAAKEYEKKKKEAIEKHLEKLKAKDKEAAERFLKELEEAAKEYAKDEAKTMSEEEAKRRAKKYKEKVLLSTLSEEEQKEIKEAEEKLVRTILKYVEEAAK
B10: M2L (designed binder)
chain: SLEEEVEKAAKEYEKKKKEAIEKHLEKLKAKDKEAAERFLKELEEAAKEYAKDEAKTMSEEEAKRRAKKYKEKVLLSELSEEEQKEIKEAEEKLVRTILKYVEEAAK
B11: E78C (designed binder)
chain: SMEEEVEKAAKEYEKKKKEAIEKHLEKLKAKDKEAAERFLKELEEAAKEYAKDEAKTMSEEEAKRRAKKYKEKVLLSCLSEEEQKEIKEAEEKLVRTILKYVEEAAK
B12: E61M (designed binder)
chain: SMEEEVEKAAKEYEKKKKEAIEKHLEKLKAKDKEAAERFLKELEEAAKEYAKDEAKTMSEMEAKRRAKKYKEKVLLSELSEEEQKEIKEAEEKLVRTILKYVEEAAK
B13: L76I (designed binder)
chain: SMEEEVEKAAKEYEKKKKEAIEKHLEKLKAKDKEAAERFLKELEEAAKEYAKDEAKTMSEEEAKRRAKKYKEKVLISELSEEEQKEIKEAEEKLVRTILKYVEEAAK
B14: K69P (designed binder)
chain: SMEEEVEKAAKEYEKKKKEAIEKHLEKLKAKDKEAAERFLKELEEAAKEYAKDEAKTMSEEEAKRRAKPYKEKVLLSELSEEEQKEIKEAEEKLVRTILKYVEEAAK
B15: L75D (designed binder)
chain: SMEEEVEKAAKEYEKKKKEAIEKHLEKLKAKDKEAAERFLKELEEAAKEYAKDEAKTMSEEEAKRRAKKYKEKVDLSELSEEEQKEIKEAEEKLVRTILKYVEEAAK
B16: A63W (designed binder)
chain: SMEEEVEKAAKEYEKKKKEAIEKHLEKLKAKDKEAAERFLKELEEAAKEYAKDEAKTMSEEEWKRRAKKYKEKVLLSELSEEEQKEIKEAEEKLVRTILKYVEEAAK
B17: K71R (designed binder)
chain: SMEEEVEKAAKEYEKKKKEAIEKHLEKLKAKDKEAAERFLKELEEAAKEYAKDEAKTMSEEEAKRRAKKYREKVLLSELSEEEQKEIKEAEEKLVRTILKYVEEAAK
B18: A46L (designed binder)
chain: SMEEEVEKAAKEYEKKKKEAIEKHLEKLKAKDKEAAERFLKELEELAKEYAKDEAKTMSEEEAKRRAKKYKEKVLLSELSEEEQKEIKEAEEKLVRTILKYVEEAAK
B19: F39W (designed binder)
chain: SMEEEVEKAAKEYEKKKKEAIEKHLEKLKAKDKEAAERWLKELEEAAKEYAKDEAKTMSEEEAKRRAKKYKEKVLLSELSEEEQKEIKEAEEKLVRTILKYVEEAAK
B20: E34C (designed binder)
chain: SMEEEVEKAAKEYEKKKKEAIEKHLEKLKAKDKCAAERFLKELEEAAKEYAKDEAKTMSEEEAKRRAKKYKEKVLLSELSEEEQKEIKEAEEKLVRTILKYVEEAAK
B21: D53W (designed binder)
chain: SMEEEVEKAAKEYEKKKKEAIEKHLEKLKAKDKEAAERFLKELEEAAKEYAKWEAKTMSEEEAKRRAKKYKEKVLLSELSEEEQKEIKEAEEKLVRTILKYVEEAAK
B22: F39D (designed binder)
chain: SMEEEVEKAAKEYEKKKKEAIEKHLEKLKAKDKEAAERDLKELEEAAKEYAKDEAKTMSEEEAKRRAKKYKEKVLLSELSEEEQKEIKEAEEKLVRTILKYVEEAAK
B23: E7T (designed binder)
chain: SMEEEVTKAAKEYEKKKKEAIEKHLEKLKAKDKEAAERFLKELEEAAKEYAKDEAKTMSEEEAKRRAKKYKEKVLLSELSEEEQKEIKEAEEKLVRTILKYVEEAAK
B24: R38G (designed binder)
chain: SMEEEVEKAAKEYEKKKKEAIEKHLEKLKAKDKEAAEGFLKELEEAAKEYAKDEAKTMSEEEAKRRAKKYKEKVLLSELSEEEQKEIKEAEEKLVRTILKYVEEAAK
B25: E83M (designed binder)
chain: SMEEEVEKAAKEYEKKKKEAIEKHLEKLKAKDKEAAERFLKELEEAAKEYAKDEAKTMSEEEAKRRAKKYKEKVLLSELSEEMQKEIKEAEEKLVRTILKYVEEAAK
B26: T97Q (designed binder)
chain: SMEEEVEKAAKEYEKKKKEAIEKHLEKLKAKDKEAAERFLKELEEAAKEYAKDEAKTMSEEEAKRRAKKYKEKVLLSELSEEEQKEIKEAEEKLVRQILKYVEEAAK
B27: S80I (designed binder)
chain: SMEEEVEKAAKEYEKKKKEAIEKHLEKLKAKDKEAAERFLKELEEAAKEYAKDEAKTMSEEEAKRRAKKYKEKVLLSELIEEEQKEIKEAEEKLVRTILKYVEEAAK
B28: A55M (designed binder)
chain: SMEEEVEKAAKEYEKKKKEAIEKHLEKLKAKDKEAAERFLKELEEAAKEYAKDEMKTMSEEEAKRRAKKYKEKVLLSELSEEEQKEIKEAEEKLVRTILKYVEEAAK
B29: K29N (designed binder)
chain: SMEEEVEKAAKEYEKKKKEAIEKHLEKLNAKDKEAAERFLKELEEAAKEYAKDEAKTMSEEEAKRRAKKYKEKVLLSELSEEEQKEIKEAEEKLVRTILKYVEEAAK
B30: K31G (designed binder)
chain: SMEEEVEKAAKEYEKKKKEAIEKHLEKLKAGDKEAAERFLKELEEAAKEYAKDEAKTMSEEEAKRRAKKYKEKVLLSELSEEEQKEIKEAEEKLVRTILKYVEEAAK
B31: E104W (designed binder)
chain: SMEEEVEKAAKEYEKKKKEAIEKHLEKLKAKDKEAAERFLKELEEAAKEYAKDEAKTMSEEEAKRRAKKYKEKVLLSELSEEEQKEIKEAEEKLVRTILKYVEWAAK
B32: K88P (designed binder)
chain: SMEEEVEKAAKEYEKKKKEAIEKHLEKLKAKDKEAAERFLKELEEAAKEYAKDEAKTMSEEEAKRRAKKYKEKVLLSELSEEEQKEIPEAEEKLVRTILKYVEEAAK
B33: K64S (designed binder)
chain: SMEEEVEKAAKEYEKKKKEAIEKHLEKLKAKDKEAAERFLKELEEAAKEYAKDEAKTMSEEEASRRAKKYKEKVLLSELSEEEQKEIKEAEEKLVRTILKYVEEAAK

Target: T1, TNFR1
Assay: yeast display SC50

Row | Binder | apparent Kd (screen) [nM]
1 | B1 | 1.86
2 | B2 | 4.39
3 | B3 | 1.54
4 | B4 | 0.49
5 | B5 | 2.73
6 | B6 | 0.49
7 | B7 | 20.2
8 | B8 | 3
9 | B9 | 1.27
10 | B10 | 1.05
11 | B11 | 0.49
12 | B12 | 1.27
13 | B13 | 1.16
14 | B14 | 22.2
15 | B15 | 5.84
16 | B16 | 1.54
17 | B17 | 0.593

Row | Binder | apparent Kd (screen) [nM]
18 | B18 | 12.5
19 | B19 | 1.05
20 | B20 | 1.16
21 | B21 | 10.4
22 | B22 | 7.07
23 | B23 | 2.73
24 | B24 | 2.73
25 | B25 | 0.446
26 | B26 | 0.446
27 | B27 | 1.69
28 | B28 | 0.446
29 | B29 | 0.539
30 | B30 | 0.653
31 | B31 | 0.869
32 | B32 | 7.78
33 | B33 | 0.718
